Data on 1 substance can be found in paper PMC3517609.

Assay [1] deals with Surfactant associated protein-A (human (endogenous in BAL fluid and serum)) (UniProt Q8IWL2).
Assay [2] shares this target. The assay is described as follows: SEC; Superose 6 column, 500 µl of serum loaded, fractions of 800 µl, SP-A in the fractions by slot blot; column calibrated with blue dextran (2000 kDa), holotransferrin (669 kDa) and bovine serum albumin (66 kDa); a peak counts as present at 20 % or more of total SP-A.
For assay [3] the target is unchanged. The description is as above. This is another data set of the same source.
The target is the same in assay [4]. The assay is described as follows: SEC; Superose 6 column, 1 ml of BAL fluid loaded, fractions of 800 µl, SP-A in the fractions by slot blot; column calibrated with blue dextran (2000 kDa), holotransferrin (669 kDa) and bovine serum albumin (66 kDa); a peak counts as present at 20 % or more of total SP-A. For orientation: In gel filtration, larger molecules generally elute earlier.

“And” between values parts separate entries of the source, which are not always exact repeats. Equal values may be shown once.

Broadly, the stoichiometry N is a count of units in the complex or per binding partner. As for “Surfactant associated protein-A (from UniProt Q8IWL2 21-248) (natural protein)”, in assay [1], the size of agglutinates of anti-SP-A latex beads; BAL, 6mers, chronic bronchitis (n = 10) is 316 Pixel; the size of agglutinates of anti-SP-A latex beads; BAL, 6mers, controls (n = 10) was determined as 352 Pixel; the size of agglutinates of anti-SP-A latex beads; BAL, 6mers, cystic fibrosis (n = 10) turned out to be 234 Pixel; the size of agglutinates of anti-SP-A latex beads; BAL, 18mers, chronic bronchitis (n = 10) is 370 Pixel. Also, in assay [1], the size of agglutinates of anti-SP-A latex beads; BAL, 18mers, controls (n = 10) is 517 Pixel; the size of agglutinates of anti-SP-A latex beads; BAL, 18mers, cystic fibrosis (n = 10) was 316 Pixel; the size of agglutinates of anti-SP-A latex beads; BAL, trimers, chronic bronchitis (n = 10) is 114 Pixel; the size of agglutinates of anti-SP-A latex beads; BAL, trimers, controls (n = 10) stood at 118 Pixel. In assay [1], the size of agglutinates of anti-SP-A latex beads; BAL, trimers, cystic fibrosis (n = 10) turned out to be 74 Pixel; the size of agglutinates of anti-SP-A latex beads; serum, 6mers, chronic bronchitis (n = 10) turned out to be 377 Pixel; the size of agglutinates of anti-SP-A latex beads; serum, 6mers, controls (n = 10) was 361 Pixel; the size of agglutinates of anti-SP-A latex beads; serum, 6mers, cystic fibrosis (n = 10) is 380 Pixel. In assay [1], this substance yielded a size of agglutinates of anti-SP-A latex beads; serum, 18mers, chronic bronchitis (n = 10) of 469 Pixel; a size of agglutinates of anti-SP-A latex beads; serum, 18mers, controls (n = 10) of 525 Pixel; a size of agglutinates of anti-SP-A latex beads; serum, 18mers, cystic fibrosis (n = 10) of 481 Pixel; a size of agglutinates of anti-SP-A latex beads; serum, trimers, chronic bronchitis (n = 10) of 143 Pixel. In assay [1], this substance registered a size of agglutinates of anti-SP-A latex beads; serum, trimers, controls (n = 10) of 132 Pixel and a size of agglutinates of anti-SP-A latex beads; serum, trimers, cystic fibrosis (n = 10) of 146 Pixel. Besides, the stoichiometry N in assay [2] came out at 18. Besides, in assay [3], the stoichiometry N is 2 and 3. In assay [4], this substance had a stoichiometry N of 18.
